Data from publication PMC4078746.

Target: Slit D2 (the Robo-binding domain of Slit) (Drosophila)
Assay: SPR

**Q.** For “Robo1 Ig1-5 fragment (Ig domain-containing portion of the Robo ectodomain) (domain or fragment)”, which Kd is on record?
**A.** The Kd was 235 nM.

**Q.** How did the Kd turn out when “Robo2 Ig1-5 fragment (Ig domain-containing portion of the Robo2 ectodomain) (domain or fragment)” was run?
**A.** Its Kd is 1100 nM.
